Changes are numbered by the printed parent chain.
T1: ST2 on KU812 cells (UniProt Q01638 19-556, limits assumed)
T1 sequence (looked up): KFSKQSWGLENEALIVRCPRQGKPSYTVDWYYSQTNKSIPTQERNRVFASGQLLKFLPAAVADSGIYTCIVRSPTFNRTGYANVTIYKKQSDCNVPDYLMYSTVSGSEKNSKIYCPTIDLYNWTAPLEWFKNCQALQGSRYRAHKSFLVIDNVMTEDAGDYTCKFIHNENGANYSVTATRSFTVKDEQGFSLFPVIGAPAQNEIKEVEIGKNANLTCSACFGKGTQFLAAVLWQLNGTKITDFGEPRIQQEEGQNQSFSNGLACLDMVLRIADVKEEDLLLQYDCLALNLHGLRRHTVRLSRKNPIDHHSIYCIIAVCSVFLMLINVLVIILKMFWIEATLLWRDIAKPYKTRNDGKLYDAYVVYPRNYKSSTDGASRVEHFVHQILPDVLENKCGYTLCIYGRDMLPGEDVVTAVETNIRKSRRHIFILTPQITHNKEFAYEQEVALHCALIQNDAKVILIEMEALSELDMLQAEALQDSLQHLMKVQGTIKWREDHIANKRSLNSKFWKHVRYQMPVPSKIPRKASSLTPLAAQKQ

T2: Cyno ST2-fc (cyno; human, UniProt A0A2K5UDB8 19-331)
T2 construct: also called cyno ST2 fused with a human IgG1 Fc tag at the C-terminus
T2 sequence: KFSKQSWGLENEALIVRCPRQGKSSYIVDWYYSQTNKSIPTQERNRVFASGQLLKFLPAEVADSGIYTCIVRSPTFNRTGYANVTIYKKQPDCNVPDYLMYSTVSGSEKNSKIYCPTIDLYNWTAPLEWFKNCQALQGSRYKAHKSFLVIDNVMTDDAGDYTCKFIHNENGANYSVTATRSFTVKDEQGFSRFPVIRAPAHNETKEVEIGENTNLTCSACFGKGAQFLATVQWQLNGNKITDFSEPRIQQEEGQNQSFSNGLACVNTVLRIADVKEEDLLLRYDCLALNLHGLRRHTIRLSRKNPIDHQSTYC

T3: Human ST2-his (human, UniProt Q01638 19-328)
T3 construct: Expressed in CHO-K1; also called human ST2 fused with a 6-histidine tag at the C-terminus
T3 sequence: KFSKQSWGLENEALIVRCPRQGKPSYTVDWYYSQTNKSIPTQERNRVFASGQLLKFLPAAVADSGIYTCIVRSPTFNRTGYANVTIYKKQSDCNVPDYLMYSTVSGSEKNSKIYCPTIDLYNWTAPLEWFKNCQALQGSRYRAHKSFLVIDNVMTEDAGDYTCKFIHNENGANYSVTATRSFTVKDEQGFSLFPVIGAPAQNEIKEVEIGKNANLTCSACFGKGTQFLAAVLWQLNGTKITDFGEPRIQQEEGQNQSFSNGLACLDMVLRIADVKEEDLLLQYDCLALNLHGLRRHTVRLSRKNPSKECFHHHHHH

B1: 5886-156H+L (antibody, V domains shown)
VH: DVQLQQSGPGLVKPSQSLSLTCTVTGYSITSDYAWNWIRQFPGNKLEWMGYIDYSGSTTYNPSLKSRFSITRDTSKNQFFLQLNSVTTEDTATYYCASTVIDSMDYWGQGTSVTVSS
VL: DIVLTQSPASLAVSLGQRATISCRASKSVSTSGHSYMHWYQQKPGQPPKLLIYLASNLESGVPARFSGSGSGTDFTLNINPMEEEDAATYYCQHSREFPFTFGSGTKLEIK
notes: murine antibody
B2: 5887-41H+L (antibody, V domains shown)
VH: B1 VH with N36D, D53R, S57D, T59Y, F68I, S98T, V100M, I101M, S103T
VL: B1 VL with A12T, H34N, N80H, M82V, F100L, S104A, I110L
notes: murine antibody
B3: 5888-116H1+L1 (antibody, V domains shown)
VH: QVQLQQSGAELVRPGASVTLSCKASGYTFTDSEMYWVRLTPVHGLEWIGAIDPETGDTAFNQKFKGKATLTADKSSSTAYMELRSLTSEDSVVYYCTRAFDNDNDDGFAYWGQGTLVTVSA
VL: QIVMTQSPAIMSASPGEKVTMTCSASSSVNYMHWYQQKSGTSPKRWIYDTSKLASGVPARFSGSGSGTSYSLTISSMEAEDAATYYCQQWSSNPLTFGAGTKLELK
notes: murine antibody
B4: 5888-153H1+L2 (antibody, V domains shown)
VH: QVQLQQSGAELVRPGASVTLSCKASGYTFTDYELHWVKQTPVHGLEWIGTIDPETGDTVYNQKFKAKAILTADKSSSTAYMEFRSLTSEDSAVCYCTRAFYNDYDDGFAYWGQGTLVTVSA
VL: B3 VL with S7T, A25V, N30S, S75N, S76N, S91N, N93S
notes: murine antibody
B5: 5888-357H+L (antibody, V domains shown)
VH: QVQLQQSVTELVRPGASVTLSCKASGYRFTDSEMHWVKQTPVHGLEWIGTIDPETGGTVYNQKFKGKAKLTADRSSSTVSMELRSLTSEDSAVYYCTRAFYNDFDDGFAYWGQGTLVTVSA
VL: B3 VL with M21L, S27T, N30S
notes: murine antibody
B6: 5887-537H3+L1 (antibody, V domains shown)
VH: QVTLKESGPGILQPSQTLSLTCSFSGFSLSTSGMGVGWIRQPSGKGLEWLAHIWWDDVKQYNPALKSRLTISKDTSSSQVFLKSASVDTADTATYYCARIGGDYDYFDFWGQGTTLTVSS
VL: DIVLTQSPASLAVSLGQRATISCRASESVEYSGTSLMQWYQQKPGQPPKLLIYVASNVESGVPARFSGSGSGTDFSLNIHPVEEDDIAMYFCQQSRKVPWTFGGGTKLEIK
notes: murine antibody; also called 5887-537H3H+L1

biological target: T1, ST2 on KU812 cells; assay: cell-based or functional assay

Row | IC50, activation of KU812-NF-κB reporter gene by IL33 [µg/mL] | Relative activity (%) compared with CNTO7160, KU812-NF-κB reporter [%] | Binder
1 | 0.00804 | 127 | B1
2 | 0.00287 | 41.9 | B2
3 | 0.206 | 122 | B3
4 | 0.0495 | 506 | B4
5 | 0.0552 | 454 | B5
6 | 0.101 | 40.2 | B6

biological target: T1, ST2 on KU812 cells; assay: cell-based or functional assay; remark: another data set of the same source

Row | Maximum inhibition rate (%), KU812 IL-5 production [%] | Relative activity (%), KU812 IL-5 production [%] | Binder
7 | 84.2 | 304 | B1
8 | 79.2 | 128 | B2
9 | 81.4 | 238 | B3
10 | 86 | 115 | B4
11 | 71 | 98.5 | B5
12 | 62.2 | 767 | B6

biological target: T2, Cyno ST2-fc; assay: ELISA, coated cyno ST2-fc
Protocol: Cyno ST2-fc was diluted with a coating buffer to 1 μg/mL, added into 96-well plates at 50 μL/well and coated overnight at 4° C. Next day, the coated plates were taken, washed with PB ST for 3 times, and then incubated using a blocking buffer at room temperature for 1 hr. Subsequently, the plates were washed with PBST for 3 times again. Starting at 1000 ng/mL, each murine antibody was diluted 3-fold to obtain serial dilutions of 8 concentrations in total which were then added into the 96-well plates at 50 μL/well. The plates were incubated at room temperature for 1 hr, washed with PB ST for 3 times; and then a goat anti-mouse secondary antibody (1:10000) was added at 50 μL/well into the 96-well plates which subsequently were incubated at room temperature for 1 hr. The 96-well plates were washed with PB ST for 3 times, and TMB was added at 50 μL/well to develop color in dark for 10 min. Afterwards, 2 M sulfuric acid was added to stop reaction; and GD values at 450 nm were read by a microplate reader. It can be seen that the murine antibodies can bind to cyno ST2, with a binding trendency consistent with the binding to human ST2.

Row | EC50 [µg/mL] | Relative activity (%) | Binder
13 | 0.0203 | 66.4 | B1
14 | 0.0615 | 21.9 | B2
15 | 0.0384 | 63.7 | B3
16 | 0.0303 | 80.7 | B4
17 | 0.0192 | 127 | B5
18 | 0.0171 | 78.5 | B6

biological target: T3, Human ST2-his; assay: ELISA, coated human ST2-his
Protocol: Human ST2-his was diluted with a coating buffer to 1 μg/mL, added into plates at 50 μL/well, and coated overnight at 4° C. Next day, the coated plates were taken, washed with PBST for 3 times, and then incubated using a blocking buffer at room temperature for 1 hr. Subsequently, the plates were washed with PBST for 3 times again. Starting at 100 ng/mL, each murine antibody was diluted 3-fold to obtain serial dilutions of 8 concentrations in total which were then added into the 96-well plates at 50 μL/well. The plates were incubated at room temperature for 1 hr, washed with PBST for 3 times; and then a goat anti-mouse secondary antibody (1:10000) was added at 50 μL/well into the 96-well plates which subsequently were incubated at room temperature for 1 hr. The 96-well plates were washed with PBST for 3 times, and TMVB was added at 50 μL/well to develop color in dark for 10 min. Afterwards, 2 M sulfuric acid was added to stop reaction; and GD values at 450 nm were read by a micro-plate reader.

Row | EC50 [µg/mL] | Relative activity (%) compared with CNTO7160 [%] | Binder
19 | 0.0161 | 131 | B1
20 | 0.0266 | 97.9 | B2
21 | 0.0288 | 63.4 | B3
22 | 0.0209 | 87.4 | B4
23 | 0.0113 | 124 | B5
24 | 0.0123 | 72.4 | B6

biological target: Human ST2-fc (human) (UniProt Q01638); assay: competition ELISA, coated ST2-fc, competitor IL33-his

Row | IC50 [µg/mL] | Relative activity (%) compared with CNTO7160 [%] | Binder
25 | 1.14 | 76.6 | B1
26 | 1.29 | 82.7 | B2
27 | 0.9 | 65.2 | B3
28 | 0.75 | 78.4 | B4
29 | 0.62 | 94.7 | B5
30 | 0.99 | 93.5 | B6

biological target: T2, Cyno ST2-fc; assay: SPR Biacore X100, antibody on CM5, cyno ST2-fc analyte
Protocol: The experiment on the interactions between the anti-human ST2 antibodies and cyno ST2-fc was performed using Biacore X100, and was carried out at 25° C. in HBS-EP (1×) buffer (pH 7.4). Each antibody was immobilized on the surface of CM5 chip using an amino coupling kit. Following the antibody immobilization, a solution of cyno ST2-fc (2-fold gradient dilution from a starting concentration of 8 nM, to obtain 6 concentrations in total; the starting concentration might be increased if the signal of some sample was too low) was injected. Association was monitored for 2 min and dissociation for 10 min, and the sensor surface was regenerated by injecting a solution of glycine at pH 1.5.

Row | Kd [pM] | koff [s⁻¹] | kon [M⁻¹ s⁻¹] | Binder
31 | 206 | 0.000747 | 3.62e+06 | B1
32 | 90.3 | 0.000721 | 7.98e+06 | B2
33 | 46.9 | 0.000382 | 8.14e+06 | B3
34 | 143 | 0.00139 | 9.68e+06 | B4
35 | 129 | 0.000826 | 6.41e+06 | B5
36 | 80.7 | 0.000511 | 6.33e+06 | B6

biological target: T3, Human ST2-his; assay: SPR Biacore X100, antibody on protein A, ST2-his analyte
Protocol: On the basis of the results of the quantitative screenings of murine antibodies above together, 19 murine antibodies were selected for affinity determination and in vitro pharmacological study. The experiment on the interaction between the anti-human ST2 antibodies and human ST2-his was performed using Biacore X100, and was carried out at 25° C. in HBS-EP (1×) buffer (pH 7.4).
Each anti-human ST2 antibody was diluted to 10 nM and captured on the surface of a protein A chip (for a capture time of 60 s). […] Association was monitored for 4 min and dissociation for 10 min, and the sensor surface was regenerated by injecting a solution of glycine at pH 2.0. Data generated for kinetics and affinity assay were analyzed using BIAevaluation software.

Row | Kd [pM] | koff [s⁻¹] | kon [M⁻¹ s⁻¹] | Binder
37 | 461 | 0.00109 | 2.37e+06 | B1
38 | 560 | 0.000613 | 1.1e+06 | B2
39 | 113 | 0.00111 | 9.87e+06 | B3
40 | 94.3 | 0.000864 | 9.17e+06 | B4
41 | 160 | 0.0007 | 4.38e+06 | B5
42 | 168 | 0.00084 | 5.01e+06 | B6

— patent US12624112 (MABWELL SHANGHAI BIOSCIENCE, dated 2026)
